The values that follow come from patent publication US20250163116A1, “NEW METHOD TO TREAT INFECTIOUS DISEASES” (INSERM (INSTITUT NATIONAL DE LA SANTÉ ET DE LA RECHERCHE …, priority 2022, published 2025).

Test [1] concerns HDMECs infected with S. pneumoniae TIGR4. The experiment in a line: Integrity of HDMECs infected with S. pneumoniae. The format is cell-based, human. Particulars: 1 μg/mL for 2 h after 30 min infection. How it is done:
FIG. 6: ANGPTL4 protects dermal microvascular endothelial cells from infection by S. pneumoniae. HDMECs were infected with S. pneumoniae TIGR4 for 30 min and treated with 1 μg/mL of recombinant human ANGPTL4 for 2 h. Cells were fixed and stained for cellular actin, VE-cadherin and DAPI and analyzed by fluorescent microscopy. Quantifications of VE-cadherin enrichment at intercellular junctions was performed on 30 fields with Image J software. Kruskal-Wallis test *** P<0.0001.
To address whether ANGPTL-4 could also provide vascular protection from Gram-positive bacteria, we investigated the effect of ANGPTL-4 on HDMECs exposed to infection by the Gram-positive bacterium Streptococcus pneumoniae, one of the major causative agents of pneumonia, sepsis, meningitis and other morbidities.

The test system of test [2] is SCID mice grafted with human skin infected with Nm 2C4.3. The experiment in a line: Outcome of meningococcal infection in SCID mice grafted with human skin (survival, with or without antibiotics). Type of test: in vivo. As for the experimental part:
A-D, SCID mice grafted with human skin were infected intravenously with Nm 2C4.3 wild-type strain (5×10^6 bacteria); 2 h after bacterial challenge, mice received recombinant human ANGPTL4 (1 μg, intravenously), cefotaxime (200 mg kg-1, intraperitoneally) alone or in combination with ANGPTL4 or vehicle as a control. 18 h following bacterial challenge, ANGPTL4 (1 μg) and cefotaxime (200 mg kg-1) were re-administered. This experiment was performed twice with n=3 or 4 mice per group, using skin from two different donors. A, A schematic representation of the protocol used in vivo. B, Bacteraemia 4, 18, 48 and 72 h post-infection (mean±s.e.m.). C, Survival curve: * P=0.0275; two-sided log-rank Mantel-Cox survival analysis. D, Thrombosis within the skin grafts at 4 h post-infection was assessed by immunofluorescence analysis and quantified as described in FIG. 8 (error bars show mean±s.e.m.; 40 vessels per mouse were analysed; n=4 mice per group; *** P<0.001; two-tailed Student's t-test.
Six-week-old CB17/Icr-Prkdcscid female mice were obtained from Janvier Labs. Human skin tissues were obtained from adult patients undergoing plastic surgery in the Service de Chirurgie Plastique et Reconstructive of the Groupe Hospitalier Saint-Joseph. […] Experimental procedures were performed as previously described in accordance with the guidelines of the Institut National de la Santé et de la Recherche Médicale and conformed to the European ethical legislation (Directive 2010/63/EU). The experimental protocol was approved by the Animal Experimentation Ethics Committee of the Université Paris Descartes (consent forms CEEA34.O.J.L.039.12 and 2018012515596498). […] A skin flap was created and a full thickness human skin graft was placed onto the wound bed. The transplants were held in place with 6-0 non-absorbable monofilament suture materials, and the flap was then sutured above the transplant. Grafted mice were infected 4-6 weeks after human skin transplantation. N. meningitidis was grown overnight at 37° C. on GCB agar plates prepared without iron and supplemented with 15 μM deferoxamine (Desferal, Novartis). Bacterial colonies were harvested and cultured in RPMI media with 1% BSA medium and 0.06 μM deferoxamine with gentle agitation to reach the exponential phase of growth. Bacteria were then resuspended in physiological saline solution. Mice were infected intravenously with 200 μl (5×10^6 bacteria) of this bacterial suspension. A 10 mg dose of human holotransferrin (R&D Systems) was administered intraperitoneally just before infection. Mice were killed at 4 h after infection. Human skin grafts were carefully collected using a sterile cutter. The tissue was washed in PBS and fixed overnight at 4° C. in 4% paraformaldehyde in phosphate buffer. After washing in phosphate buffer, the specimens were embedded in OCT medium and then frozen at −80° C. Sections of the dermis (7 μm thick) were immobilized on Superfrost Plus microscope slides and subjected to immunofluorescence analysis. Sections were incubated with the primary antibodies for 1 h in PBS/3% BSA then DAPI was added to Alexa-conjugated secondary antibodies for 1 h. After additional washing, coverslips were mounted in glycergel (Dako) and were further analysed using a slide scanner (Lamina, Perkin Elmer). Analysis of the images was performed using ImageJ software (NIH). […]
We then analysed whether ANGPTL4 could provide a beneficial effect when administered with antibiotics.

For test [3], the system named is Src kinase and VE-cadherin phosphorylation. The experiment in a line: Src kinase and VE-cadherin phosphorylation in infected HDMECs. The format is cell-based, human. Particulars: added 30 min after initiation of infection. From the text: In contrast to brain microvascular endothelial cells that resist to meningococcal infection, the integrity of dermal microvascular endothelial cell (HDMECs) monolayer was massively impaired upon infection, as observed with the loss of adherens junctions and cell detachment (data not shown). Since HDMEC poorly produces ANGPTL4 as compared to HBMEC (data not shown), we analysed whether the addition of recombinant human ANGPTL4 might exert a protective effect on these cells. […] Additionally, while infection was accompanied by the massive release of inflammatory cytokines (TNF-α, IL-6, IL-8), markers of vascular inflammation (E-selectin, ICAM-1, VCAM-1), and markers of endothelial cell alteration (Endoglin, Thrombomodulin), all these markers were reduced by 35 to 80% upon treatment with ANGPTL4 (data not shown).

B1: ANGPTL4: Recombinant human ANGPTL4 (Angiopoietin-like 4), full length, SEQ ID NO: 1, purchased from R&D Systems (protein, listed as Homo sapiens)
chain: MSGAPTAGAALMLCAATAVLLSAQGGPVQSKSPRFASWDEMNVLAHGLLQLGQGLREHAERTRSQLSALERRLSACGSACQGTEGSTDLPLAPESRVDPEVLHSLQTQLKAQNSRIQQLFHKVAQQQRHLEKQHLRIQHLQSQFGLLDHKHLDHEVAKPARRKRLPEMAQPVDPAHNVSRLHRLPRDCQELFQVGERQSGLFEIQPQGSPPFLVNCKMTSDGGWTVIQRRHDGSVDFNRPWEAYKAGFGDPHGEFWLGLEKVHSITGDRNSRLAVQLRDWDGNAELLQFSVHLGGEDTAYSLQLTAPVAGQLGATTVPPSGLSVPFSTWDQDHDLRRDKNCAKSLSGGWWFGTCSHSNLNGQYFRSIPQQRQKLKKGIFWKTWRGRYYPLQATTMLIQPMAAEAAS
For B1, the “endothelial integrity (cell junction organization) upon S. pneumoniae infection” value in test [1] was “preserved endothelial integrity”. The “mice surviving the infection” value in test [2] (1 μg/mouse i.v., 2 h post-infection, all control mice died) is 15%. Also, in test [2] (at the time of death, data not shown), the “signs of thrombosis and vascular leakage in human dermal vessels of grafts” value is “reduced signs of thrombosis and vascular leakage”. In test [3], the “Src kinase and VE-cadherin phosphorylation” value is “significantly reduced”.
